Results taken from patent US12104181B2, “Compositions and methods for treating viral infections targeting TRIM7” (THE BOARD OF REGENTS OF THE UNIVERSITY OF TEXAS SYSTEM, priority 2021, dated 2024).

B1: TRIM45: human RING type E3 ligase expressed from lentiviral vector (protein, UniProt Q9H8W5 1-580, looked up)
E3 ubiquitin-protein ligase …: MSENRKPLLGFVSKLTSGTALGNSGKTHCPLCLGLFKAPRLLPCLHTVCTTCLEQLEPFSVVDIRGGDSDTSSEGSIFQELKPRSLQSQIGILCPVCDAQVDLPMGGVKALTIDHLAVNDVMLESLRGEGQGLVCDLCNDREVEKRCQTCKANLCHFCCQAHRRQKKTTYHTMVDLKDLKGYSRIGKPILCPVHPAEELRLFCEFCDRPVCQDCVVGEHREHPCDFTSNVIHKHGDSVWELLKGTQPHVEALEEALAQIHIINSALQKRVEAVAADVRTFSEGYIKAIEEHRDKLLKQLEDIRAQKENSLQLQKAQLEQLLADMRTGVEFTEHLLTSGSDLEILITKRVVVERLRKLNKVQYSTRPGVNDKIRFCPQEKAGQCRGYEIYGTINTKEVDPAKCVLQGEDLHRAREKQTASFTLLCKDAAGEIMGRGGDNVQVAVVPKDKKDSPVRTMVQDNKDGTYYISYTPKEPGVYTVWVCIKEQHVQGSPFTVMVRRKHRPHSGVFHCCTFCSSGGQKTARCACGGTMPGGYLGCGHGHKGHPGHPHWSCCGKFNEKSECTWTGGQSAPRSLLRTVAL
B2: TRIM38: human RING type E3 ligase expressed from lentiviral vector (protein, UniProt O00635 1-465, looked up)
E3 ubiquitin-protein ligase …: MASTTSTKKMMEEATCSICLSLMTNPVSINCGHSYCHLCITDFFKNPSQKQLRQETFCCPQCRAPFHMDSLRPNKQLGSLIEALKETDQEMSCEEHGEQFHLFCEDEGQLICWRCERAPQHKGHTTALVEDVCQGYKEKLQKAVTKLKQLEDRCTEQKLSTAMRITKWKEKVQIQRQKIRSDFKNLQCFLHEEEKSYLWRLEKEEQQTLSRLRDYEAGLGLKSNELKSHILELEEKCQGSAQKLLQNVNDTLSRSWAVKLETSEAVSLELHTMCNVSKLYFDVKKMLRSHQVSVTLDPDTAHHELILSEDRRQVTRGYTQENQDTSSRRFTAFPCVLGCEGFTSGRRYFEVDVGEGTGWDLGVCMENVQRGTGMKQEPQSGFWTLRLCKKKGYVALTSPPTSLHLHEQPLLVGIFLDYEAGVVSFYNGNTGCHIFTFPKASFSDTLRPYFQVYQYSPLFLPPPGD
modifications: lentiviral expression
notes: human RING type E3 ligase expressed from lentiviral vector
B3: TRIM40: human RING type E3 ligase expressed from lentiviral vector (protein, UniProt Q6P9F5 1-258, looked up)
E3 ubiquitin ligase TRIM40: MIPLQKDNQEEGVCPICQESLKEAVSTNCGHLFCRVCLTQHVEKASASGVFCCPLCRKPCSEEVLGTGYICPNHQKRVCRFCEESRLLLCVECLVSPEHMSHHELTIENALSHYKERLNRRSRKLRKDIAELQRLKAQQEKKLQALQFQVDHGNHRLEAGPESQHQTREQLGALPQQWLGQLEHMPAEAARILDISRAVTQLRSLVIDLERTAKELDTNTLKNAGDLLNRSAPQKLEVIYPQLEKGVSELLLQPPQKL
modifications: lentiviral expression
notes: as for B2
B4: TRIM37: human RING type E3 ligase expressed from lentiviral vector (protein, UniProt O94972 1-964, looked up)
E3 ubiquitin-protein ligase …: MDEQSVESIAEVFRCFICMEKLRDARLCPHCSKLCCFSCIRRWLTEQRAQCPHCRAPLQLRELVNCRWAEEVTQQLDTLQLCSLTKHEENEKDKCENHHEKLSVFCWTCKKCICHQCALWGGMHGGHTFKPLAEIYEQHVTKVNEEVAKLRRRLMELISLVQEVERNVEAVRNAKDERVREIRNAVEMMIARLDTQLKNKLITLMGQKTSLTQETELLESLLQEVEHQLRSCSKSELISKSSEILMMFQQVHRKPMASFVTTPVPPDFTSELVPSYDSATFVLENFSTLRQRADPVYSPPLQVSGLCWRLKVYPDGNGVVRGYYLSVFLELSAGLPETSKYEYRVEMVHQSCNDPTKNIIREFASDFEVGECWGYNRFFRLDLLANEGYLNPQNDTVILRFQVRSPTFFQKSRDQHWYITQLEAAQTSYIQQINNLKERLTIELSRTQKSRDLSPPDNHLSPQNDDALETRAKKSACSDMLLEGGPTTASVREAKEDEEDEEKIQNEDYHHELSDGDLDLDLVYEDEVNQLDGSSSSASSTATSNTEENDIDEETMSGENDVEYNNMELEEGELMEDAAAAGPAGSSHGYVGSSSRISRRTHLCSAATSSLLDIDPLILIHLLDLKDRSSIENLWGLQPRPPASLLQPTASYSRKDKDQRKQQAMWRVPSDLKMLKRLKTQMAEVRCMKTDVKNTLSEIKSSSAASGDMQTSLFSADQAALAACGTENSGRLQDLGMELLAKSSVANCYIRNSTNKKSNSPKPARSSVAGSLSLRRAVDPGENSRSKGDCQTLSEGSPGSSQSGSRHSSPRALIHGSIGDILPKTEDRQCKALDSDAVVVAVFSGLPAVEKRRKMVTLGANAKGGHLEGLQMTDLENNSETGELQPVLPEGASAAPEEGMSSDSDIECDTENEEQEEHTSVGGFHDSFMVMTQPPDEDTHSSFPDGEQIGPEDLSFNTDENSGR
modifications: lentiviral expression
notes: as for B2
B5: TRIM35: human RING type E3 ligase expressed from lentiviral vector (protein, UniProt Q9UPQ4 1-493, looked up)
E3 ubiquitin-protein ligase …: MERSPDVSPGPSRSFKEELLCAVCYDPFRDAVTLRCGHNFCRGCVSRCWEVQVSPTCPVCKDRASPADLRTNHTLNNLVEKLLREEAEGARWTSYRFSRVCRLHRGQLSLFCLEDKELLCCSCQADPRHQGHRVQPVKDTAHDFRAKCRNMEHALREKAKAFWAMRRSYEAIAKHNQVEAAWLEGRIRQEFDKLREFLRVEEQAILDAMAEETRQKQLLADEKMKQLTEETEVLAHEIERLQMEMKEDDVSFLMKHKSRKRRLFCTMEPEPVQPGMLIDVCKYLGSLQYRVWKKMLASVESVPFSFDPNTAAGWLSVSDDLTSVTNHGYRVQVENPERFSSAPCLLGSRVFSQGSHAWEVALGGLQSWRVGVVRVRQDSGAEGHSHSCYHDTRSGFWYVCRTQGVEGDHCVTSDPATSPLVLAIPRRLRVELECEEGELSFYDAERHCHLYTFHARFGEVRPYFYLGGARGAGPPEPLRICPLHISVKEELDG
B6: TRIM46: human RING type E3 ligase expressed from lentiviral vector (protein, UniProt Q7Z4K8 1-759, looked up)
Tripartite motif-containing …: MAEGEDMQTFTSIMDALVRISTSMKNMEKELLCPVCQEMYKQPLVLPCTHNVCQACAREVLGQQGYIGHGGDPSSEPTSPASTPSTRSPRLSRRTLPKPDRLDRLLKSGFGTYPGRKRGALHPQVIMFPCPACQGDVELGERGLAGLFRNLTLERVVERYRQSVSVGGAILCQLCKPPPLEATKGCTECRATFCNECFKLFHPWGTQKAQHEPTLPTLSFRPKGLMCPDHKEEVTHYCKTCQRLVCQLCRVRRTHSGHKITPVLSAYQALKDKLTKSLTYILGNQDTVQTQICELEEAVRHTEVSGQQAKEEVSQLVRGLGAVLEEKRASLLQAIEECQQERLARLSAQIQEHRSLLDGSGLVGYAQEVLKETDQPCFVQAAKQLHNRIARATEALQTFRPAASSSFRHCQLDVGREMKLLTELNFLRVPEAPVIDTQRTFAYDQIFLCWRLPPHSPPAWHYTVEFRRTDVPAQPGPTRWQRREEVRGTSALLENPDTGSVYVLRVRGCNKAGYGEYSEDVHLHTPPAPVLHFFLDSRWGASRERLAISKDQRAVRSVPGLPLLLAADRLLTGCHLSVDVVLGDVAVTQGRSYWACAVDPASYLVKVGVGLESKLQESFQGAPDVISPRYDPDSGHDSGAEDATVEASPPFAFLTIGMGKILLGSGASSNAGLTGRDGPTAGCTVPLPPRLGICLDYERGRVSFLDAVSFRGLLECPLDCSGPVCPAFCFIGGGAVQLQEPVGTKPERKVTIGGFAKLD
modifications: lentiviral expression
notes: as for B2
B7: TRIM44: human RING type E3 ligase expressed from lentiviral vector (protein, UniProt Q96DX7 1-344, looked up)
Tripartite motif-containing …: MASGVGAAFEELPHDGTCDECEPDEAPGAEEVCRECGFCYCRRHAEAHRQKFLSHHLAEYVHGSQAWTPPADGEGAGKEEAEVKVEQEREIESEAGEESESEEESESEEESETEEESEDESDEESEEDSEEEMEDEQESEAEEDNQEEGESEAEGETEAESEFDPEIEMEAERVAKRKCPDHGLDLSTYCQEDRQLICVLCPVIGAHQGHQLSTLDEAFEELRSKDSGGLKAAMIELVERLKFKSSDPKVTRDQMKMFIQQEFKKVQKVIADEEQKALHLVDIQEAMATAHVTEILADIQSHMDRLMTQMAQAKEQLDTSNESAEPKAEGDEEGPSGASEEEDT
modifications: lentiviral expression
notes: as for B2
B8: TRIM43: human RING type E3 ligase expressed from lentiviral vector (protein, UniProt Q96BQ3 1-446, looked up)
Tripartite motif-containing …: MDSDFSHAFQKELTCVICLNYLVDPVTICCGHSFCRPCLCLSWEEAQSPANCPACREPSPKMDFKTNILLKNLVTIARKASLWQFLSSEKQICGTHRQTKKMFCDMDKSLLCLLCSNSQEHGAHKHHPIEEAAEEHREKLLKQMRILWKKIQENQRNLYEEGRTAFLWRGNVVLRAQMIRNEYRKLHPVLHKEEKQHLERLNKEYQEIFQQLQRSWVKMDQKSKHLKEMYQELMEMCHKPDVELLQDLGDIVARSESVLLHMPQPVNPELTAGPITGLVYRLNRFRVEISFHFEVTNHNIRLFEDVRSWMFRRGPLNSDRSDYFAAWGARVFSFGKHYWELDVDNSCDWALGVCNNSWIRKNSTMVNSEDIFLLLCLKVDNHFNLLTTSPVFPHYIEKPLGRVGVFLDFESGSVSFLNVTKSSLIWSYPAGSLTFPVRPFFYTGHR
B9: TRIM39: human RING type E3 ligase expressed from lentiviral vector (protein, UniProt Q9HCM9 1-518, looked up)
E3 ubiquitin-protein ligase …: MAETSLLEAGASAASTAAALENLQVEASCSVCLEYLKEPVIIECGHNFCKACITRWWEDLERDFPCPVCRKTSRYRSLRPNRQLGSMVEIAKQLQAVKRKIRDESLCPQHHEALSLFCYEDQEAVCLICAISHTHRAHTVVPLDDATQEYKEKLQKCLEPLEQKLQEITRCKSSEEKKPGELKRLVESRRQQILREFEELHRRLDEEQQVLLSRLEEEEQDILQRLRENAAHLGDKRRDLAHLAAEVEGKCLQSGFEMLKDVKSTLEKNIPRKFGGSLSTICPRDHKALLGLVKEINRCEKVKTMEVTSVSIELEKNFSNFPRQYFALRKILKQLIADVTLDPETAHPNLVLSEDRKSVKFVETRLRDLPDTPRRFTFYPCVLATEGFTSGRHYWEVEVGDKTHWAVGVCRDSVSRKGELTPLPETGYWRVRLWNGDKYAATTTPFTPLHIKVKPKRVGIFLDYEAGTLSFYNVTDRSHIYTFTDTFTEKLWPLFYPGIRAGRKNAAPLTIRPPTDWE

System: coxsackievirus B3 (CVB3-GFP)
Type: cell-based
Settings: HeLa cells, replicate R1; for Percent Infected R1: GFP-positive cells within RFP-positive gate

Molecule	Percent Infected R1	Z score R1
B1	63.9%	−0.314
B2	60.7%	−0.355
B3	62.8%	−0.328
B4	58.8%	−0.379
B5	66.3%	−0.284
B6	60.8%	−0.354
B7	61.7%	−0.342
B8	61.4%	−0.346
B9	58.6%	−0.382
